Measurements as given in US20130252987A1, “METHOD OF REGULATING PLASMA LIPOPROTEINS” (MCMASTER UNIVERSITY, priority 2010, published 2013).

How the values were obtained:
[1] = test system: human PCSK9; experiment: PCSK9 siRNA studies in HepG2 cells; assay type: cell-based
Description: Four siRNAs targeting human PCSK9 synthesized by Qiagen (Qiagen, MD) were purchased and tested. The siRNAs were transfected into HepG2 cells at a final concentration of 10 nM, using HiPerFect transfection reagent (Qiagen, MD) at 0.5% final volume. The siRNA that produced the maximum decrease in PCSK9 mRNA and protein expression in HepG2 cells (70% knockdown by Western blot 24 hours post-transfection) was chosen for further experiments. As a negative control, HepG2 cells were transfected with a scrambled siRNA control vector in HiPerFect (both Qiagen, MD). As a positive control, HepG2 cells were transfected with siRNA targeting the constitutively expressed GAPDH gene, using HiPerFect (Qiagen, MD). Western blots against PCSK9 (Caymen Chemicals, MI), LDL receptor (Fitzgerald International, CA) and GAPDH (Sigma, Mo.) were done in control untreated HepG2 cells, cells transfected with the optimal PCSK9 siRNA (Qiagen, MD) and cells treated with human resistin (50 ng/mL) plus PCSK9 siRNA 24 hours post-transfection.
The extent of the role of PCSK9 in the resistin mediated reduction in hepatocyte LDL receptor levels was examined. […] PCSK9 protein levels in hepatocytes were next assessed in response to PCSK9 siRNA administration, with and without resistin. […]

[2] = test system: HepG2 cells; experiment: Oil-Red-O staining of neutral lipid; assay type: cell-based, human; details: 50 ng/mL, 24 hours, versus untreated
Description: Cells were stained with Oil-Red-0 to examine the amount of neutral lipid accumulation in the cells as described by Ferre et al. (Am. J. Physiol Gastrointest. Liver Physiol. 296:G553-G562). Briefly, dishes were washed with cold phosphate-buffered saline and fixed in 10% neutral formalin. After 2 changes of propylene glycol, Oil-Red-0 was added with agitation for 7 minutes, followed by washing in 85% propylene glycol. The dishes were then rinsed in distilled water and counterstained with hematoxylin. For each dish, 3 images were photographed, and a representative image is shown.
To determine if the deleterious effects of human resistin extend not only to increased secretion of apoB-containing lipoproteins by human hepatocytes, but also to increased hepatocyte lipid content, as the two processes frequently occur together in such conditions as obesity, insulin resistance and type 2 diabetes mellitus. Oil-Red-O/hematoxylin staining of HepG2 cells either untreated, treated with 100 μM oleate for 24 hours as a positive control, or treated with 50 ng/mL human resistin for 24 hours was performed. […] The increased cell neutral lipid content with resistin treatment was similar in magnitude to that observed with 100 μM oleate treatment.

[3] = test system: HepG2 cells; experiment: electron microscopy of secreted VLDL fraction; assay type: cell-based, human; details: 50 ng/mL, 24 hours
Description: The VLDL lipoprotein fraction was isolated from HepG2 cell media via ultracentrifugation at density of 1.006 g/mL using a Beckman Optima TL ultracentrifuge and 100.4 TLA rotor (Beckman Coulter, Brea, Calif.). Mean particle size for VLDL was then determined using the Hitachi 7000 electron microscope equipped with a AMT XR-60 digital camera. The fixation process for electron microscopy utilized 1% Os04 in a phosphate buffer at pH 7.4 applied to the VLDL fraction for a 30 minute exposure. A small drop of this solution was placed on a 400 mesh copper grid coated with a carbon film and allowed to stand for 3 minutes or until sample has dried. The fixed VLDL were placed on the electron microscope grid for viewing and digitizing. The captured images were taken at 75 KV using a beam current of 25 uA. Digital Images of the VDL were taken at about 50,000×. The mean particle size was then determined by importing the digital images into NIH image J software.
The secretion of apoB protein by HepG2 cells increased markedly by approximately 8-fold with human resistin treatment, along with the observed increases in secreted VLDL lipids. […] Furthermore, the quantity of VLDL particles found in a representative […] area was increased markedly in resistin-treated samples by a mean of 10-fold.

[4] = test system: HepG2 cells; experiment: FPLC lipoprotein profile of HepG2 cell media; assay type: cell-based, human; details: 50 ng/mL, 24 hour
Description: Lipids from HepG2 cell extracts were quantified by gas chromatography (GC) as described in Sahoo et al. (J. Lipid Res. 45:1122-1131). Briefly, cell extracts were incubated with phospholipase C (Sigma, ON) to remove polar head groups, then extracted in the presence of internal standard by the method of Folch et al. (J Biol Chem 226:497-509). Extracted lipids were passed through a sodium sulfate column to remove aqueous contaminants, and derivatized with Sylon BFT (Supelco, ON) to cap reactive hydroxyl and carboxyl groups. Derivatized lipids were dissolved in hexane and injected onto a Zebron ZB-5 column (Phenomenex, Torrance, Calif.) in an Agilent 6890 GC instrument. Lipoprotein Profiles. HepG2 media from 6-10 cm plates was collected and concentrated using an Amicon Centriprep concentrator 50 K and lipoprotein classes separated by fast protein liquid chromatography (FPLC) on a Superose 6 10/30 gel filtration column (Amersham, UK) followed by inline post-column reaction with either Infinity Triglyceride or Infinity Cholesterol reagent (Thermo Scientific, West Palm Beach, Fla.) and measurement of absorbance @ 500 nm.
The characteristics of the apoB-containing lipoprotein particles produced as a result of treatment of human hepatocytes with human resistin was determined. […]

B1: human resistin: recombinant lyophilized purified human resistin (Calbiochem); cysteine-rich cytokine, single 12 kDa band (protein)
chain: KTLCSMEEAINERIQEVAGSLIFRAISSIGLECQSVTSRGDLATCPRGFAVTGCTCGSACGSWDVRAETTCHCQCAGMDWTGARCCRVQP
effect on LDL receptor elevation induced with PCSK9 siRNA ([1]; resistin 50 ng/mL plus PCSK9 siRNA): reversed | cellular PCSK9 levels compared with siRNA treatment alone ([1]; resistin plus PCSK9 siRNA): enhanced | hepatocyte neutral lipid content [2]: clear increase | increase in quantity of VLDL particles in a representative 100 cm^2 area [3]: 10 fold | increase in secreted VLDL triglycerides and cholesterol relative to control untreated cells [4]: 8-9 fold | lipid contents of the secreted LDL or HDL fractions [4]: virtually no change
